From patent publication US20190125833A1

What was measured:
[1] = target: Myostatin (UniProt O14793); test: SPR (Biacore T100), myostatin injected, Langmuir 1:1 model
[2] = target: Myostatin (UniProt O14793); test: SPR (Biacore T100): Fc fusion captured by anti-human antibody on a CM4 chip, myostatin injected as analyte, Langmuir 1:1 model
[3] = target: Myostatin (UniProt O14793); test: cell-based or functional assay

Chain of Myostatin (O14793 267-375 limits assumed): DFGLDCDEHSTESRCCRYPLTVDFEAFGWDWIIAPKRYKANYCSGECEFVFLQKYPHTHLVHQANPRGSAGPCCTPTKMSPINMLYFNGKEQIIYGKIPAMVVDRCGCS
Chain of Activin Receptor 2B-FC (Fc fusion) (Q13705 19-137): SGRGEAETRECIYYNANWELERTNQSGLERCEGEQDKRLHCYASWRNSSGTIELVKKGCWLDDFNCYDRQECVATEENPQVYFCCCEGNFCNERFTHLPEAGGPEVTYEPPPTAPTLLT

Kd [1] | koff [2] | kon [2] | IC50 of inhibition of myostatin dependent SMAD2/3 activation (luciferase reporter, HEK293, 0.1 nM myostatin) [3] | Substance
2.5 nM | 0.00098 s⁻¹ | 390000 M⁻¹ s⁻¹ |  | Activin Receptor 2B-FC (Fc fusion)
 |  |  | 0.17 nM | hNOPE (1-620) ECD-FC (Fc fusion)
